The record followed here is patent publication US20230295345A1 (published 2023).

Assay [1] concerns the target T1, human TMPRSS6 (matriptase-2) expressed on HEK293T cells (HuTMPRSS6-(His)6) (UniProt Q8IU80 10-811).
T1 chain: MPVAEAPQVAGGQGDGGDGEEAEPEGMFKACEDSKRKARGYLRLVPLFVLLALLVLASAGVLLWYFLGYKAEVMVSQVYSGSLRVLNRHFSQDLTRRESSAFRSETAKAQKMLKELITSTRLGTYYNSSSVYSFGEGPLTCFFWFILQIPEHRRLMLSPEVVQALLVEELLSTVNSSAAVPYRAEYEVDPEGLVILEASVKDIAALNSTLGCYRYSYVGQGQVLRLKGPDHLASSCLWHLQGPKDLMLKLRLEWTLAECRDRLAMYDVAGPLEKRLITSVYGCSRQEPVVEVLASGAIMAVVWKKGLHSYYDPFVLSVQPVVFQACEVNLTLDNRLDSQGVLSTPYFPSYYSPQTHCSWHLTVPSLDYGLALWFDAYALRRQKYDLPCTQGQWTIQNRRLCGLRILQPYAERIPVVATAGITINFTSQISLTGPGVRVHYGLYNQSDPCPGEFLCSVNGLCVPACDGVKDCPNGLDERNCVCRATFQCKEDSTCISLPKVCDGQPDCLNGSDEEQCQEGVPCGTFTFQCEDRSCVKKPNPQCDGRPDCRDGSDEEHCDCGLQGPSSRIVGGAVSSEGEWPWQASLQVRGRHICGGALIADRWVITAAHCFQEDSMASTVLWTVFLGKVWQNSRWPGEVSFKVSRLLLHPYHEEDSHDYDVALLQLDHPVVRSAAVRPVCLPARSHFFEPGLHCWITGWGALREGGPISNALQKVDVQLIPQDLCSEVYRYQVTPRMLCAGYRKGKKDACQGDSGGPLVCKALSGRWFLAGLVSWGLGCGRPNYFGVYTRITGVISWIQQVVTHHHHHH
Kind of assay: FACS. A general note: Flow cytometry measures light scatter and fluorescence of single cells or particles in a stream.

Assay [2] deals with T1, human TMPRSS6 (matriptase-2) expressed …. Description: cell surface ELISA.
The target of assay [3] is T2, cynomolgus monkey TMPRSS6 expressed on HEK293T cells (CynoTMPRSS6-(His)6).
T2 chain: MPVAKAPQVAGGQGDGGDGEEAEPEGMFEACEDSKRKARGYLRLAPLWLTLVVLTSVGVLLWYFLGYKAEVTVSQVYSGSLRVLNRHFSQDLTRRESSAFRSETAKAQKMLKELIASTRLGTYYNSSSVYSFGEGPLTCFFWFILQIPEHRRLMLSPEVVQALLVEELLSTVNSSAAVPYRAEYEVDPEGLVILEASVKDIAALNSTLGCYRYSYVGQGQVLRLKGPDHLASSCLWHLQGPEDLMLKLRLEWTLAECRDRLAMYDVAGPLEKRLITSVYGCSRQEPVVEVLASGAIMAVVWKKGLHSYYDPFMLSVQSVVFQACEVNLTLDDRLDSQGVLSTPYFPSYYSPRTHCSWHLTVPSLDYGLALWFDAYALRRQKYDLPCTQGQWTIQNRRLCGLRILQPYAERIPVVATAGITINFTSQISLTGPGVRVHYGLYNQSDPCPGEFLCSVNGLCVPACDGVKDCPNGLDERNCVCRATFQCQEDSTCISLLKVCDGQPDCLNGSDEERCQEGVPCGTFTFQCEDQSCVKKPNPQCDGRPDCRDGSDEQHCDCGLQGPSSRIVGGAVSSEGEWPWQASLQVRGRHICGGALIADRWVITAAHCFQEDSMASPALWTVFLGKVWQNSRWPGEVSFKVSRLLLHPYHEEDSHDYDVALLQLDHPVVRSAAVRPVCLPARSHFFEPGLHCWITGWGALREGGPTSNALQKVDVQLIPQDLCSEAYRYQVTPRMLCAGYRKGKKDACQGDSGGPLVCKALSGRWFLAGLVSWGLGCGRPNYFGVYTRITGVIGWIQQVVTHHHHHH
Description: cell surface ELISA.

Assay [4] deals with T3, mouse TMPRSS6 expressed on HEK293T cells (MoTMPRSS6-(His)6) (UniProt Q9DBI0 1-811).
T3 chain: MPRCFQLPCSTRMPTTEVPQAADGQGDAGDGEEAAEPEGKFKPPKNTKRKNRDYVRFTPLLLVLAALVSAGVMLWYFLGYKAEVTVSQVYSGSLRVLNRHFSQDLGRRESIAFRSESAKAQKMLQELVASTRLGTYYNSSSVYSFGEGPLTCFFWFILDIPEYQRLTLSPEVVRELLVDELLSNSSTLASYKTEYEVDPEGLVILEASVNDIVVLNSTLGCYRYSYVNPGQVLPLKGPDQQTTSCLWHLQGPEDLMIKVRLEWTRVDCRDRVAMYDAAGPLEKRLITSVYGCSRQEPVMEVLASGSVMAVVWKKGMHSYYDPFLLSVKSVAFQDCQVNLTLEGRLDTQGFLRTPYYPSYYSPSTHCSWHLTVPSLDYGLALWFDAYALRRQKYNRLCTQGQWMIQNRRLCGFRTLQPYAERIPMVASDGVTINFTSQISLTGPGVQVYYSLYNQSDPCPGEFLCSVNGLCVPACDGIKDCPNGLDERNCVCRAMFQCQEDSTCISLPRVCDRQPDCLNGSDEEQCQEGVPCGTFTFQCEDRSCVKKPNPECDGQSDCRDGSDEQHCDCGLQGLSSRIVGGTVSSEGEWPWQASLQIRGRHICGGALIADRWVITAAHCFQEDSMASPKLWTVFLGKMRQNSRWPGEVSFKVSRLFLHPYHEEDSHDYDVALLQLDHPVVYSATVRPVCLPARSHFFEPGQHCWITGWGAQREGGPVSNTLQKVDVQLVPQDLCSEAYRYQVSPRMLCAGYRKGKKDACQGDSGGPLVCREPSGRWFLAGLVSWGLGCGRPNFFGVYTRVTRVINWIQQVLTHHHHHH
Description: cell surface ELISA. (ELISA stands for enzyme-linked immunosorbent assay.)

Assay [5] addresses T2, cynomolgus monkey TMPRSS6 expressed on …. Description: cell surface ELISA.
The target of assay [6] is T3, mouse TMPRSS6 expressed on HEK293T …. Kind of assay: cell surface ELISA.

Read-outs that look alike come from different tables or passages of the source.

B1: MWTx-003 anti-TMPRSS6 antibody (antibody, V domains shown)
VH: EVQLQQSGAELVKPGASVKLSCTASGFNIEDYYIHWVKERTEQGLEWIGRIDPEDGETTYAPQFQGKATIIPDTSSNTAYMQLSSLTSEDAAVYYCARSIYLDPMDYWGQGTSVTVSS
VL: DIVMTQSHKFMSTSVGDRVSITCKASQDVTTAVAWYQQKPGQSPKILIYWATTRHTGVPDRFTGSISGTTYILTISSVQAEDLALYYCQQHYSTPYTFGGGTKLEIKR
The term EC50 denotes the concentration that produces a half-maximal response. Regarding B1, the EC50 in assay [1] was 0.2 µg/mL; in assay [2] it was 0.05 µg/mL; in assay [3], 0.09 µg/mL; in assay [4], 0.07 µg/mL.

B2: hzMWTx-002Var anti-TMPRSS6 antibody (antibody, V domains shown)
VH: EVQLVQSGAEVKKPGASVKVSCKASGFNIKDYYIHWVRQATGQGLEWMGRIDPEDAESEYAPKFQGRVTITADTSTDTAYMELSSLRSEDTAVYYCTRGDSMMVTYFDYWGQGTLVTVSS
VL: DIQMTQSPSSLSASVGDRVTITCKASQDVSTAVAWYQQKPGKAPKLLIYWAFTRHTGVPSRFSGSGSGTDYALTISSLQPEDFATYYCQQHYRSPWTFGGGTKVEIKR
The molecule B2 gave an EC50 in assay [5] of 0.06 µg/mL.

B3: MWTx-002 anti-TMPRSS6 antibody (antibody, V domains shown)
VH: EVQLQQSGAELVKPGASVKLSCTASGFNIKDYYIHWVKERTEQGLEWFGRIDPEDGESEYAPKFQGKATLTADTSSNTAYLQLSSLTSEDTAVYYCTRGDSMMVTYFDYWGQGTTLTVSS
VL: DIVMTQSHKFMSTSVGDRVSITCKASQDVSTAVAWYQQKPGQSPKLLIYWAFTRHTGVPDRFTSTGSGTDYALTISSVQAEDLALYYCQQHYRSPWTFGGGTKLEIKR
For the molecule B3, the EC50 in assay [1] amounted to 0.2 µg/mL; in assay [2], 0.04 µg/mL; in assay [3], 0.06 µg/mL.

B4: hzMWTx-003Var anti-TMPRSS6 antibody (antibody, V domains shown)
VH: QVQLVQSGAEVKKPGASVKVSCKASGFNIEDYYMHWVRQAPGQRLEWMGRIDPEDAETTYSPKFQGRVTIIPDTSANTAYMELSSLRSEDTAVYYCARSIYLDPMDYWGQGTLVTVSS
VL: DIQMTQSPKSLSASVGDRVTITCRASQDVTTALAWYQQKPGQSPKLLIYWATTRHSGVPSRFSGSGSGTDFTLTISSLQPEDFATYYCQQHYSTPYTFGQGTKLEIKR
Turning to B4, the EC50 in assay [5] is 0.03 µg/mL; in assay [6] it was 0.31 µg/mL.

B5: MWTx-001 anti-TMPRSS6 antibody (antibody, V domains shown)
VH: QVQLQQPGAELAKPGASVKMSCKASGYTFTSYWITWVKQRPGQDLEWIGNIYPGSGSTYYNEKFKSKATLTVDTSSRTAYMQLSSLTSADSAVYYCAPYDSDYAMDYWGQGTSVTVSS
VL: DIKMTQSPSSMYASLGERVTITCKASQDINNYLSWFQQKPGKSPKTLIYRANRLVDGVPSRVSGSGSGQDYSLTISSLEYEDVGIYFCLQYDEFPLTFGAGTKLELKR
Take B5: the EC50 in assay [1] was 1 µg/mL; in assay [2], 0.2 µg/mL; in assay [3] it was 0.1 µg/mL; in assay [4], 0.25 µg/mL.

B6: hzMWTx-001Var anti-TMPRSS6 antibody (antibody, V domains shown)
VH: EVQLVQSGAEVKKPGASVKVSCKASGYTFTSYWITWVRQAPGQRLEWIGNIYPGSGSTYYNEKFKSKATITRDTSSRTAYMELSSLRSEDTAVYYCAPYDADYAMDYWGQGTLVTVSS
VL: DIQMTQSPSSLSASVGDRVTITCKASQDISNYLSWFQQKPGKAPKLLIYRANRLVEGVPSRFSGSGSGTDFTLTISSLQPEDFATYFCLQYDEFPLTFGGGTKVEIKR
Consider B6, for which the results for the EC50 in assay [5] and in assay [6] were 0.003 µg/mL and 0.03 µg/mL, respectively.
